Laboratory results published in patent US11648290B2, “Cartilage-homing peptides” (FRED HUTCHINSON CANCER CENTER, priority 2015, dated 2023).

Legend:
trypsin = molecular target: T1, trypsin (Bos taurus, UniProt P00760); experiment: Peptide resistance to trypsin digestion (RP-HPLC); assay type: in vitro ADME
T1 construct: gene PRSS1
T1 sequence (P00760 24-246): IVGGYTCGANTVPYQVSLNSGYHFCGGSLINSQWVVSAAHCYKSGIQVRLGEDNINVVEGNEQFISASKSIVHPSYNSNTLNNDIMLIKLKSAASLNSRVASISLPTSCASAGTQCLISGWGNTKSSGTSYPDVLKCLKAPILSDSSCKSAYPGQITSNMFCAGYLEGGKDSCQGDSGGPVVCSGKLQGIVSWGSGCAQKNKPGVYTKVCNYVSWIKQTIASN
Procedure: Various peptides were suspended in 500 μl of ddH2O at a stock concentration of 2 mg/ml. Reactions were prepared with 12.5 μg peptide and 5 μg trypsin in 25 mM Tris/75 mM NaCl buffer (pH 7.0) and incubated for 30 minutes at 37.5° C. Reactions were quenched with 5 μg of soybean trypsin inhibitor and 10 mM dithiothreitol (DTT). Reversed phase HPLC (RP-HPLC) was run on samples using an Agilent 1260 HPLC equipped with a C-18 Poroshell 120B column. Sample were analyzed by a gradient method with a mobile phase of Solvent A (water with 0.1% TFA) and Solvent B (acetonitrile with 0.1% TFA). Solvent B was ramped up from 5%-45% of the mobile phase over a period of 10 minutes.

[1] = Temperature stability of peptides (RP-HPLC); assay type: physicochemical
Procedure: This example illustrates peptide stability at high temperatures. Peptides were first suspended in 500 μl of ddH2O to a stock concentration of 2 mg/ml. Reactions were prepared by adding 6.25 μl of peptide from the stock solution with 95 μl ddH2O and incubated at room temperature, 70° C., or 100° C. for one hour in a Thermocycler. RP-HPLC was then run on samples using an Agilent 1260 HPLC equipped with a C-18 Poroshell 120B column. Sample were analyzed by a gradient method with a mobile phase of Solvent A (water with 0.1% TFA) and Solvent B (acetonitrile with 0.1% TFA). Solvent B was ramped up from 5%-45% of the mobile phase over a period of 10 minutes.
Peptides of SEQ ID NO: 28 and SEQ ID NO: 483 were analyzed by HPLC after incubation at room temperature (25° C.), 70° C., or 100° C. for one hour.

In the case of “GSISIGIKCSPSIDLCEGQCRIRKYFTGYCSGDTCHCSG [SEQ ID NO: 483]”, the “Resistance to degradation by trypsin” value (trypsin; 12.5 ug peptide, 5 ug trypsin, pH 7.0, 30 minutes at 37.5 C) was “partially resistant to degradation by trypsin”, the “Resistance to reduction by DTT (FIG. 54)” value (trypsin; 10 mM DTT) was “partially resistant to reduction by DTT” and the “Stability after heat incubation (HPLC)” value ([1]; 70 C for 1 hour) was “resistant to heat-induced degradation”. For the same sequence, the “Stability after heat incubation (HPLC)” value ([1]; 100 C for 1 hour) was “underwent various degrees of degradation”.
